Results from PMC3458536 (Nucleic Acids Research, 2012).

B1: GST-U2AF35 (natural protein)
chain: MAEYLASIFGTEKDKVNCSFYFKIGACRHGDRCSRLHNKPTFSQTIALLNIYRNPQNSSQSADGLRCAVSDVEMQEHYDEFFEEVFTEMEEKYGEVEEMNVCDNLGDHLVGNVYVKFRREEDAEKAVIDLNNRWFNGQPIHAELSPVTDFREACCRQYEMGECTRGGFCNFMHLKPISRELRRELYGRRRKKHRSRSRSRERRSRSRDRGRGGGGGGGGGGGGRERDRRRSRDRERSGRF

Tests used:
Assay in all cases: pull-down
[1] = target: His-YB-1 (recombinant His-tagged full-length YB-1) (human, UniProt P67809 1-324)
GST-U2AF65 = GST-U2AF65 (UniProt P26368 1-475)
GST-U2AF35 = target: B1

Chain of GST-U2AF65 (P26368 whole entry, one chain of several): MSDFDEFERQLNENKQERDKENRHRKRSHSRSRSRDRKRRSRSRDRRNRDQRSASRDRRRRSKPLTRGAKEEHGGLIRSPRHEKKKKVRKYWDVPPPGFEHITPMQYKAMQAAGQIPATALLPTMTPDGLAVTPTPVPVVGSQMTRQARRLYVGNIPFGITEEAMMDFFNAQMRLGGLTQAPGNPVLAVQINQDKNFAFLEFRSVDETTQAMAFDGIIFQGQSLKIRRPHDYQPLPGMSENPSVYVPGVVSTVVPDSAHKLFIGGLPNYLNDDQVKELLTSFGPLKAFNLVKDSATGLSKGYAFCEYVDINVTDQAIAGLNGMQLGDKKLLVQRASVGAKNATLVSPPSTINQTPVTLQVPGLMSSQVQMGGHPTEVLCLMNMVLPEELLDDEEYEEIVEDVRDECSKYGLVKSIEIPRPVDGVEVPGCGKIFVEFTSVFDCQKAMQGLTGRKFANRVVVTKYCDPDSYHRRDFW

## B1
[1]
  binding result: binds

B2: His-C (C-terminal B/A repeat domain of YB-1, amino acids 128-324) (domain or fragment)
chain: PGGVPVQGSKYAADRNHYRRYPRRRGPPRNYQQNYQNSESGEKNEGSESAPEGQAQQRRPYRRRRFPPYYMRRPYGRRPQYSNPPVQGEVMEGADNQGAGEQGRPVRQNMYRGYRPRFRRGPPRQRQPREDGNEEDKENQGDETQGQQPPQRRYRRNFNYRRRRPENPKPQDGKETKAADPPAENSSAPEAEQGGAE
GST-U2AF65
  binding result: binds
GST-U2AF35
  binding result: binds
